In this assay the target is His-Bub3 (recombinant full-length Bub3) (mouse, UniProt Q9WVA3 1-326). Put plainly: pull-down.
Sequence of His-Bub3 (recombinant full-length Bub3) (Q9WVA3 whole entry): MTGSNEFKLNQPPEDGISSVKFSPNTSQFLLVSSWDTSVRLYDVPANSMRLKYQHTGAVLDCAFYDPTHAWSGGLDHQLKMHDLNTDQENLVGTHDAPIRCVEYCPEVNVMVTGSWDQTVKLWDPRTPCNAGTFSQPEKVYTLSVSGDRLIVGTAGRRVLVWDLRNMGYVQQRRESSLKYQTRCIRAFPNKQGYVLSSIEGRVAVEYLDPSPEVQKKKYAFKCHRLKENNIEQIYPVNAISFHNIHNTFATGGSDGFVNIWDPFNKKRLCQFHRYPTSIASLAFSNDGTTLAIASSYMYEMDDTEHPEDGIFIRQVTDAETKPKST

B1: GST-Wapl(1-50) (domain or fragment, mouse, UniProt Q65Z40 1-50, looked up)
chain: MTSRFGKTYSRKGGNGSSKFDEVFSNKRTTLSTKWGETTFMAKLGQKRPN
For B1, the binding result is reported as “binds”.

Values taken from PMC7141834 (Science Advances, 2020).
